In the Human Domainome abundance scans (Beltran et al. 2025):
± gives the uncertainty stated by the source.

B1: Far upstream element-binding protein 2, residues 142 to 214; numbered along this chain, Q92945 (parent)
chain: RTSMTEEYRVPDGMVGLIIGRGGEQINKIQQDSGCKVQISPDSGGLPERSVSLTGAPESVQKAKMMLDDIVSR

Variants of: B1
Assay: abundance fitness (aPCA) (normalised: wild type 0, dead -1); higher = more abundant; growth selection in yeast, the domain comes from the species named
Conditions: Homo sapiens

| Variant | abundance fitness |
| --- | --- |
| RTSMTENYRVPDGMVGLIIGRGGEQINKIQQDSGCKVQISPDSGGLPERSVSLTGAPESVQKAKMMLDDIVSR [E7N] | -0.109 ± 0.066 |
| RTSMTEHYRVPDGMVGLIIGRGGEQINKIQQDSGCKVQISPDSGGLPERSVSLTGAPESVQKAKMMLDDIVSR [E7H] | 0.043 ± 0.069 |
| RTSMTEFYRVPDGMVGLIIGRGGEQINKIQQDSGCKVQISPDSGGLPERSVSLTGAPESVQKAKMMLDDIVSR [E7F] | 0.074 ± 0.073 |
| RTSMTEKYRVPDGMVGLIIGRGGEQINKIQQDSGCKVQISPDSGGLPERSVSLTGAPESVQKAKMMLDDIVSR [E7K] | -0.115 ± 0.048 |
| RTSMTECYRVPDGMVGLIIGRGGEQINKIQQDSGCKVQISPDSGGLPERSVSLTGAPESVQKAKMMLDDIVSR [E7C] | -0.178 ± 0.051 |
| RTSMTEVYRVPDGMVGLIIGRGGEQINKIQQDSGCKVQISPDSGGLPERSVSLTGAPESVQKAKMMLDDIVSR [E7V] | -0.194 ± 0.04 |
| RTSMTEMYRVPDGMVGLIIGRGGEQINKIQQDSGCKVQISPDSGGLPERSVSLTGAPESVQKAKMMLDDIVSR [E7M] | -0.02 ± 0.049 |
| RTSMTEYYRVPDGMVGLIIGRGGEQINKIQQDSGCKVQISPDSGGLPERSVSLTGAPESVQKAKMMLDDIVSR [E7Y] | 0.028 ± 0.063 |
| RTSMTEPYRVPDGMVGLIIGRGGEQINKIQQDSGCKVQISPDSGGLPERSVSLTGAPESVQKAKMMLDDIVSR [E7P] | -0.137 ± 0.047 |
| RTSMTEDYRVPDGMVGLIIGRGGEQINKIQQDSGCKVQISPDSGGLPERSVSLTGAPESVQKAKMMLDDIVSR [E7D] | -0.036 ± 0.057 |
| RTSMTEAYRVPDGMVGLIIGRGGEQINKIQQDSGCKVQISPDSGGLPERSVSLTGAPESVQKAKMMLDDIVSR [E7A] | -0.136 ± 0.039 |
| RTSMTEIYRVPDGMVGLIIGRGGEQINKIQQDSGCKVQISPDSGGLPERSVSLTGAPESVQKAKMMLDDIVSR [E7I] | -0.028 ± 0.065 |
| RTSMTELYRVPDGMVGLIIGRGGEQINKIQQDSGCKVQISPDSGGLPERSVSLTGAPESVQKAKMMLDDIVSR [E7L] | 0.021 ± 0.04 |
| RTSMTEQYRVPDGMVGLIIGRGGEQINKIQQDSGCKVQISPDSGGLPERSVSLTGAPESVQKAKMMLDDIVSR [E7Q] | 0.017 ± 0.05 |
| RTSMTESYRVPDGMVGLIIGRGGEQINKIQQDSGCKVQISPDSGGLPERSVSLTGAPESVQKAKMMLDDIVSR [E7S] | -0.088 ± 0.04 |
| RTSMTETYRVPDGMVGLIIGRGGEQINKIQQDSGCKVQISPDSGGLPERSVSLTGAPESVQKAKMMLDDIVSR [E7T] | 0.046 ± 0.045 |
| RTSMTIEYRVPDGMVGLIIGRGGEQINKIQQDSGCKVQISPDSGGLPERSVSLTGAPESVQKAKMMLDDIVSR [E6I] | -0.086 ± 0.069 |
| RTSMTMEYRVPDGMVGLIIGRGGEQINKIQQDSGCKVQISPDSGGLPERSVSLTGAPESVQKAKMMLDDIVSR [E6M] | 0.187 ± 0.052 |
| RTSMTLEYRVPDGMVGLIIGRGGEQINKIQQDSGCKVQISPDSGGLPERSVSLTGAPESVQKAKMMLDDIVSR [E6L] | 0.07 ± 0.042 |

| Variant | abundance fitness |
| --- | --- |
| RTSMTGEYRVPDGMVGLIIGRGGEQINKIQQDSGCKVQISPDSGGLPERSVSLTGAPESVQKAKMMLDDIVSR [E6G] | -0.189 ± 0.034 |
| RTSMTDEYRVPDGMVGLIIGRGGEQINKIQQDSGCKVQISPDSGGLPERSVSLTGAPESVQKAKMMLDDIVSR [E6D] | -0.171 ± 0.053 |
| RTSMTHEYRVPDGMVGLIIGRGGEQINKIQQDSGCKVQISPDSGGLPERSVSLTGAPESVQKAKMMLDDIVSR [E6H] | -0.062 ± 0.065 |
| RTSMTTEYRVPDGMVGLIIGRGGEQINKIQQDSGCKVQISPDSGGLPERSVSLTGAPESVQKAKMMLDDIVSR [E6T] | 0.125 ± 0.048 |
| RTSMTNEYRVPDGMVGLIIGRGGEQINKIQQDSGCKVQISPDSGGLPERSVSLTGAPESVQKAKMMLDDIVSR [E6N] | -0.255 ± 0.069 |
| RTSMTVEYRVPDGMVGLIIGRGGEQINKIQQDSGCKVQISPDSGGLPERSVSLTGAPESVQKAKMMLDDIVSR [E6V] | 0.097 ± 0.039 |
| RTSMTCEYRVPDGMVGLIIGRGGEQINKIQQDSGCKVQISPDSGGLPERSVSLTGAPESVQKAKMMLDDIVSR [E6C] | 0.051 ± 0.053 |
| RTSMTQEYRVPDGMVGLIIGRGGEQINKIQQDSGCKVQISPDSGGLPERSVSLTGAPESVQKAKMMLDDIVSR [E6Q] | 0.045 ± 0.053 |
| RTSMTYEYRVPDGMVGLIIGRGGEQINKIQQDSGCKVQISPDSGGLPERSVSLTGAPESVQKAKMMLDDIVSR [E6Y] | -0.147 ± 0.066 |
| RTSMTREYRVPDGMVGLIIGRGGEQINKIQQDSGCKVQISPDSGGLPERSVSLTGAPESVQKAKMMLDDIVSR [E6R] | -0.068 ± 0.035 |
| RTSMTKEYRVPDGMVGLIIGRGGEQINKIQQDSGCKVQISPDSGGLPERSVSLTGAPESVQKAKMMLDDIVSR [E6K] | -0.027 ± 0.05 |
| RTSMTAEYRVPDGMVGLIIGRGGEQINKIQQDSGCKVQISPDSGGLPERSVSLTGAPESVQKAKMMLDDIVSR [E6A] | -0.021 ± 0.039 |
| RTSMTSEYRVPDGMVGLIIGRGGEQINKIQQDSGCKVQISPDSGGLPERSVSLTGAPESVQKAKMMLDDIVSR [E6S] | -0.017 ± 0.041 |
| RTSMTWEYRVPDGMVGLIIGRGGEQINKIQQDSGCKVQISPDSGGLPERSVSLTGAPESVQKAKMMLDDIVSR [E6W] | -0.086 ± 0.046 |
| RTSMTFEYRVPDGMVGLIIGRGGEQINKIQQDSGCKVQISPDSGGLPERSVSLTGAPESVQKAKMMLDDIVSR [E6F] | -0.1 ± 0.073 |
| RTSMTEEYRDPDGMVGLIIGRGGEQINKIQQDSGCKVQISPDSGGLPERSVSLTGAPESVQKAKMMLDDIVSR [V10D] | -0.467 ± 0.064 |
| RTSMTEEYRCPDGMVGLIIGRGGEQINKIQQDSGCKVQISPDSGGLPERSVSLTGAPESVQKAKMMLDDIVSR [V10C] | -0.137 ± 0.057 |
| RTSMTEEYRAPDGMVGLIIGRGGEQINKIQQDSGCKVQISPDSGGLPERSVSLTGAPESVQKAKMMLDDIVSR [V10A] | -0.289 ± 0.044 |
| RTSMTEEYREPDGMVGLIIGRGGEQINKIQQDSGCKVQISPDSGGLPERSVSLTGAPESVQKAKMMLDDIVSR [V10E] | -0.456 ± 0.051 |
